For this test, the target named is His-tagged recombinant AjBNIP3 (rAjBNIP3) (Apostichopus japonicus). Nature of the test: MST.

In general, Kd refers to the free concentration of one partner at which half of the binding sites on the other are occupied at equilibrium, for simple one-to-one binding. Recombinant His-AjLC3 (natural protein): the Kd was determined as 2820 nM.

The record behind these values is publication PMC8920847.
